Assay results published in patent US20260001937A1, “NOVEL RECOMBINANT FIBRINOGEN VARIANTS FOR FIBRIN SEALANTS FOR SURGICAL WOUND CARE” (Julius-Maximilians-Universität Würzburg, priority 2022, published 2026).
Changes are numbered by the printed parent chain.

Assays:
[1] = biological target: T1, WT-Fbg (human fibrinogen, SigmaAldrich), P02671
T1 chain 1: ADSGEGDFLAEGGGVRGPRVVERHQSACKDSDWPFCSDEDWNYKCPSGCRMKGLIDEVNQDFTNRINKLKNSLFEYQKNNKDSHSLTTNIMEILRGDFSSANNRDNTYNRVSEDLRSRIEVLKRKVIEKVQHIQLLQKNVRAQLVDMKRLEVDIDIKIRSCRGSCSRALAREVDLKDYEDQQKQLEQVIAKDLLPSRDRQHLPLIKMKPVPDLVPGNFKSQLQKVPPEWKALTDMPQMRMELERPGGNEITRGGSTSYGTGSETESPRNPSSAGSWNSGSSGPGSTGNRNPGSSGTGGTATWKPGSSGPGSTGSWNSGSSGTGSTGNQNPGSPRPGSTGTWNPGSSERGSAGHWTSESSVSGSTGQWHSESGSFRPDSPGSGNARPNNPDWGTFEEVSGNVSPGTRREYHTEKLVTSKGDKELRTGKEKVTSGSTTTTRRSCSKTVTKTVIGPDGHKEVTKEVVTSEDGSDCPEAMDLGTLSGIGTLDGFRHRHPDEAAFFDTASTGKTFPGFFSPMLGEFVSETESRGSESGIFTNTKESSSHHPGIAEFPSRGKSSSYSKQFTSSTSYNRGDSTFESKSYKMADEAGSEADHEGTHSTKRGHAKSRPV
T1 chain 2: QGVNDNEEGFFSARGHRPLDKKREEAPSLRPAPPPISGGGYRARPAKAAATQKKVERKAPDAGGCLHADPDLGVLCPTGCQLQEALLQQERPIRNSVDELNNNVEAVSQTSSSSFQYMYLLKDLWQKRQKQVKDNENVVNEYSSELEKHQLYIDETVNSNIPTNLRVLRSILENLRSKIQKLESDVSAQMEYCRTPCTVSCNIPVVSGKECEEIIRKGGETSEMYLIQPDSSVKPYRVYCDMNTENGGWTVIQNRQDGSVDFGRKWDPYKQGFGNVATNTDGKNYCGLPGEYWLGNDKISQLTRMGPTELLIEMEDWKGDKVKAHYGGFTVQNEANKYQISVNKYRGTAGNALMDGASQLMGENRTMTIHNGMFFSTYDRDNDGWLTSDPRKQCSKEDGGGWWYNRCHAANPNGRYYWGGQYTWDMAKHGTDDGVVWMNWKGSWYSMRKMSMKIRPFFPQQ
T1 chain 3: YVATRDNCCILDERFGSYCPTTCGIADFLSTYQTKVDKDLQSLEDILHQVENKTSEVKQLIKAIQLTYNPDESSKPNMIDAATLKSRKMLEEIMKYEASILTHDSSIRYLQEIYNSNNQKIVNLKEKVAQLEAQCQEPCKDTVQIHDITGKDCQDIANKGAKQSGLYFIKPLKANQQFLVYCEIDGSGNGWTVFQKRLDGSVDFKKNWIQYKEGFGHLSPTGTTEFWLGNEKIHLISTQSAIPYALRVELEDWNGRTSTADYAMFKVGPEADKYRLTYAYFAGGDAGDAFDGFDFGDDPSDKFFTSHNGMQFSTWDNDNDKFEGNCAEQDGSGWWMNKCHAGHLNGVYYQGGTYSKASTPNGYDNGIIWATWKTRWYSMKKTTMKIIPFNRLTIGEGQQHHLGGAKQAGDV

[2] = biological target: T2, His-rFbg (recombinant fibrinogen, gamma-chain K88H, K111H, K382H, K399H)
T2 chain 1: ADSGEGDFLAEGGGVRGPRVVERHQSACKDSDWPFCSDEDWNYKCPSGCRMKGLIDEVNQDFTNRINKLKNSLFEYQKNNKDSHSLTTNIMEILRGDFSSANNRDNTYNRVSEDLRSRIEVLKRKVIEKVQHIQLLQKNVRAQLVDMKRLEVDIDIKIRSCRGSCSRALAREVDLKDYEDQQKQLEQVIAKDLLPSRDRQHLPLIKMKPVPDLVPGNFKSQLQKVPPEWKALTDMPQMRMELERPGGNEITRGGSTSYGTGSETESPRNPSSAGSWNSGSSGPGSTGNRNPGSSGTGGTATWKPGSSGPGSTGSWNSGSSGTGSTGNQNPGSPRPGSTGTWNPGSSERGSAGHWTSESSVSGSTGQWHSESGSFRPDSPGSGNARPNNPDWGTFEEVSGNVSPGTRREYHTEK
T2 chain 2: T1 chain 2
T2 chain 3: T1 chain 3 with K62H, K85H, K356H, K373H

B1: human plasmin (Merck) (protein)
chain: KVYLSECKTGNGKNYRGTMSKTKNGITCQKWSSTSPHRPRFSPATHPSEGLEENYCRNPDNDPQGPWCYTTDPEKRYDYCDILECEEECMHCSGENYDGKISKTMSGLECQAWDSQSPHAHGYIPSKFPNKNLKKNYCRNPDRELRPWCFTTDPNKRWELCDIPRCTTPPPSSGPTYQCLKGTGENYRGNVAVTVSGHTCQHWSAQTPHTHNRTPENFPCKNLDENYCRNPDGKRAPWCHTTNSQVRWEYCKIPSCDSSPVSTEQLAPTAPPELTPVVQDCYHGDGQSYRGTSSTTTTGKKCQSWSSMTPHRHQKTPENYPNAGLTMNYCRNPDADKGPWCFTTDPSVRWEYCNLKKCSGTEASVVAPPPVVLLPDVETPSEEDCMFGNGKGYRGKRATTVTGTPCQDWAAQEPHRHSIFTPETNPRAGLEKNYCRNPDGDVGGPWCYTTNPRKLYDYCDVPQCAAPSFDCGKPQVEPKKCPGRVVGGCVAHPHSWPWQVSLRTRFGMHFCGGTLISPEWVLTAAHCLEKSPRPSSYKVILGAHQEVNLEPHVQEIEVSRLFLEPTRKDIALLKLSSPAVITDKVIPACLPSPNYVVADRTECFITGWGETQGTFGAGLLKEAQLPVIENKVCNRYEFLNGRVQSTELCAGHLAGGTDSCQGDSGGPLVCFEKDKYILQGVTSWGLGCARPNKPGVYVRVSRFVTWIEGVMRNN
plasmin cleavage sites in the gamma-chain, high-resolution ESI-MS after 24 h digest in solution (0.5 U/mL plasmin) [1]: the 4 different cleavage sites K88, K111, K382, K399 in the WT could be detected
plasmin cleavage analysis of target sites (peptide fragments detected by MS) [2]: Position 382 shows a partial cleavage for the mutants (both cleaved and non-cleaved peptides detected)
plasmin cleavage at the mutated gamma-chain sites 88, 111, 382, 399, high-resolution ESI-MS after 24 h digest in solution [2]: no cleavage was detected in either of the two mutants for all 4 mutations
